B1: MYBL2 (parent)
chain: IAKHLKGRLGKQCRERWHNHLNPE

Variants of: B1
Assay: protein stability index of a GFP-peptide fusion (GPS, HEK-293T) (PSI 1-6); higher = more stable
Conditions: c terminus: a fixed tail appended
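Also: lentivirally expressed fusions sorted by FACS into six bins by GFP to DsRed ratio, PSI derived from sequencing read proportions per bin multiplied by bin number.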

Protein stability index: each site, then its substitutions
H18: I 2.73, D 1.85, T 2.97, L 1.55, C 1.8, S 1.47, N 2.33, G 1.85, E 1.82, F 2.24, A 1.61, Q 2.43, V 1.1, R 1.56, P 1.9, K 2.87
K11: G 3.92, N 2.43, Q 1.79, C 2.09, I 1.97, R 1.95, D 2.47, F 1.4, W 2.44, M 2.69, V 2.12, T 1.67, P 1.75, L 2.36, S 2.43, A 2.06, E 2.46, Y 2.02, H 2.41
C13: G 2.54, D 2.57, N 3.21, Q 1.96, A 2.55, S 2.14, H 2.33, V 1.97, W 2.19, F 1.65, M 2.01, R 2.3, E 2.68, L 1.87, I 2.58, Y 1.64, T 2.08, K 2.34, P 2.57
R16: M 2.39, C 2.13, Y 2.41, D 2.08, G 1.71, H 1.58, V 2, P 1.96, S 1.85, I 1.54, T 2.13, L 2.06, E 2.58, K 2.66, F 2.19, A 2.21, W 4.03, Q 2.12, N 2
Q12: A 1.29, F 2.08, C 2.53, N 1.38, M 1.92, T 1.55, E 1.92, R 2.44, H 2.38, I 2.97, W 1.93, K 1.51, V 1.61, G 3.02, D 1.93, Y 2.33, P 1.54, S 2.77, L 2.32
E15: V 2.12, K 2.18, G 1.9, I 1.96, N 1.69, R 1.96, W 3.6, D 1.73, H 1.25, S 1.23, C 2.38, T 2.5, P 1.63, F 2.26, Q 1.49, A 2.17, Y 2.12, M 3.02, L 2.48
G10: D 1.83, C 1.74, V 2.54, Y 2.49, F 3.24, N 2.52, Q 1.96, S 1.99, I 2.44, R 1.67, T 2.16, H 1.35, E 1.48, K 1.61, A 1.92, W 2.56, P 2.22, L 1.94
R14: S 1.5, D 2.56, C 1.77, L 1.63, V 1.74, E 2.59, T 2.61, Q 2.52, W 1.82, G 2.03, F 1.47, H 2.3, K 1.87, M 1.29, N 2.62, P 2.64, A 2, I 1.83, Y 2.12
W17: V 2.08, Q 2.71, P 3.13, L 2.96, K 2.94, C 2.3, H 2.69, F 2.81, T 2.69, A 2.35, I 2.14, Y 2.38, R 2.4, D 2.4, M 2.31, G 2.52, E 3.22, N 2.8, S 2.53

From the supplement of paper PMC10567573
